18 molecules from patent US20240116985A1 (published 2024) can be followed below.

What is called IC50 is the concentration that inhibits the measured activity by half. Low readings indicate inhibition by little substance, high ones a need for much substance. The EC50 is the concentration that produces a half-maximal response. Low values mean a more potent agent, high ones a less potent agent.

Starred links: 1 amine or outer side, 2 acyl side, 3 side chain; linkers in the order of their positions; H or OH if unused. Positions of bridges follow the written chain, without caps; N, C: chain ends. Non-standard residues stand in square brackets, D forms with d. Primed or numbered codes have the meaning given here. B5(17) = 2,2-bis(4-pentenyl)glycine = 2-amino-2-(pent-4-en-1-yl)hept-6-enoic acid, stitching residue, C=CCCCC(CCCC=C)(N[*:1])C(=O)[*:2]; B5(4) = 2,2-bis(4-pentenyl)glycine = 2-amino-2-(pent-4-en-1-yl)hept-6-enoic acid (stitching residue), C=CCCCC(CCCC=C)(N[*:1])C(=O)[*:2]; B5(5) = 2,2-bis(4-pentenyl)glycine, 2-amino-2-(pent-4-en-1-yl)hept-6-enoic acid (stitching residue), C=CCCCC(CCCC=C)(N[*:1])C(=O)[*:2]; B5(21) = 2-amino-2-(pent-4-en-1-yl)hept-6-enoic acid, bis(4-pentenyl)glycine (stitching residue), C=CCCCC(CCCC=C)(N[*:1])C(=O)[*:2]; (NHCyBu)AsnR = N4-cyclobutyl-L-asparagine, O=C(C[C@H](N[*:1])C(=O)[*:2])NC1CCC1; (NHCyPr)AsnR = N4-cyclopropyl-L-asparagine, O=C(C[C@H](N[*:1])C(=O)[*:2])NC1CC1; (NHnPr)AsnR = N4-propyl-L-asparagine, CCCNC(=O)C[C@H](N[*:1])C(=O)[*:2]; (NHMe)AsnR = N4-methyl-L-asparagine, CNC(=O)C[C@H](N[*:1])C(=O)[*:2]; TOMe = O-methyl-L-threonine, CO[C@H](C)[C@H](N[*:1])C(=O)[*:2]; Ala(2-furyl) = N[C@@H](Cc1ccco1)C(=O)O; His(τ-Me) = Cn1cnc(C[C@H](N)C(=O)O)c1; Bta = N[C@@H](Cc1csc2ccccc12)C(=O)O; αAllylPro = C=CC[C@@]1(C(=O)O)CCCN1; S8 = C=CCCCCCC[C@](C)(N)C(=O)O

The labels stand for the following.
B1: I-328 (peptide)
peptide: Ac-[αAllylPro]DA[B5(4)]DDAA[Ala(2-furyl)]V[S8]FWQ-NH2
modifications: staple 1-4, 4-11; not fully specified; printed as Ac-PL3-Asp-Ala-B5-Asp-Asp-Ala-Ala-2FurA-Val-S8-Phe-Trp-Gln-NH2
notes: Stapled peptide composition; also called Ac-PL3-Asp-Ala-B5-Asp-Asp-Ala-Ala-2FurA-Val-S8-Phe-Trp-Gln-NH2
B2: I-329 (peptide)
peptide: Ac-[αAllylPro]DA[B5(4)]DDAA[His(τ-Me)]V[S8]FWQ-NH2
modifications: staple 1-4, 4-11; not fully specified; printed as Ac-PL3-Asp-Ala-B5-Asp-Asp-Ala-Ala-1meH-Val-S8-Phe-Trp-Gln-NH2
notes: Stapled peptide composition; also called Ac-PL3-Asp-Ala-B5-Asp-Asp-Ala-Ala-1meH-Val-S8-Phe-Trp-Gln-NH2
B3: I-353 (peptide)
peptide: XDAXDDAAAVXFWQ
modifications: not fully specified; N-terminal Ac; PL3 at 1; B5 at 4; S8 at 11; C-terminal NH2; stapled PL3-B5 and B5-S8 (olefin metathesis)
notes: Stapled peptide composition; also called Ac-PL3-Asp-Ala-B5-Asp-Asp-Ala-Ala-Ala-Val-S8-Phe-Trp-Gln-NH2
B4: I-327 (peptide)
peptide: Ac-[αAllylPro]DA[B5(4)]DDAA[Ala(2-furyl)]V[S8]FWQ-NH2
modifications: staple 1-4, 4-11; not fully specified; printed as Ac-PL3-Asp-Ala-B5-Asp-Asp-Ala-Ala-2FurA-Val-S8-Phe-Trp-Gln-NH2
notes: as for B1
B5: I-542 (peptide)
peptide: XDTXDEAAFQXFXQ
modifications: not fully specified; Ac-PL3-Asp-TOMe-B5-Asp-Glu-Ala-Ala-Phe-Gln-S8-Phe-BztA-Gln-NH2; N-terminal acetyl, C-terminal amide; non-natural: PL3(1), TOMe(3), B5(4), S8(11), BztA(13); staples PL3(1)-B5(4) and B5(4)-S8(11)
B6: I-539 (peptide)
peptide: Ac-[αAllylPro]DA[B5(21)][(NHCyBu)AsnR]DAAFV[S8]F[Bta]Q-NH2
modifications: staple 1-4, 4-11
notes: Stapled (stitched) peptide composition
B7: I-537 (peptide)
peptide: Ac-[αAllylPro]DA[B5(21)][(NHnPr)AsnR]DAAFV[S8]F[Bta]Q-NH2
modifications: staple 1-4, 4-11
notes: as for B6
B8: I-541 (peptide)
peptide: Ac-[αAllylPro]D[TOMe][B5(21)]DEAAFQ[S8]F[Bta]Q-NH2
modifications: staple 1-4, 4-11
B9: I-563 (peptide)
peptide: XDLXDDAAFNXFXQ
modifications: not fully specified; Ac-PL3-Asp-Leu-B5-Asp-Asp-Ala-Ala-Phe-Asn-S8-Phe-BztA-Gln-NH2; N-terminal acetyl, C-terminal amide; non-natural: PL3(1), B5(4), S8(11), BztA(13); staples PL3(1)-B5(4) and B5(4)-S8(11)
B10: I-540 (peptide)
peptide: Ac-[αAllylPro]DA[B5(21)][(NHMe)AsnR]DAAFV[S8]F[Bta]Q-NH2
modifications: staple 1-4, 4-11
notes: as for B6
B11: I-538 (peptide)
peptide: Ac-[αAllylPro]DA[B5(21)][(NHCyPr)AsnR]DAAFV[S8]F[Bta]Q-NH2
modifications: staple 1-4, 4-11
notes: as for B6
B12: I-562 (peptide)
peptide: Ac-[αAllylPro]DL[B5(5)]DDAAFN[S8]F[Bta]Q-NH2
modifications: staple 1-4, 4-11
B13: I-553 (peptide)
peptide: XDIXDDAAFNXFXH
modifications: not fully specified; Ac-PL3-Asp-Ile-B5-Asp-Asp-Ala-Ala-Phe-Asn-S8-2OMeF-BztA-His-NH2; N-terminal acetyl, C-terminal amide; non-natural: PL3(1), B5(4), S8(11), 2OMeF(12), BztA(13); staples PL3(1)-B5(4) and B5(4)-S8(11)
B14: I-561 (peptide)
peptide: XDLXDDAAFQXFXH
modifications: not fully specified; Ac-PL3-Asp-Leu-B5-Asp-Asp-Ala-Ala-Phe-Gln-S8-Phe-BztA-His-NH2; N-terminal acetyl, C-terminal amide; non-natural: PL3(1), B5(4), S8(11), BztA(13); staples PL3(1)-B5(4) and B5(4)-S8(11)
B15: I-564 (peptide)
peptide: Ac-[αAllylPro]DL[B5(5)]DDAAFN[S8]F[Bta]H-NH2
modifications: staple 1-4, 4-11
B16: I-549 (peptide)
peptide: XDIXDDAAFNXFXQ
modifications: not fully specified; Ac-PL3-Asp-Ile-B5-Asp-Asp-Ala-Ala-Phe-Asn-S8-2OMeF-BztA-Gln-NH2; N-terminal acetyl, C-terminal amide; non-natural: PL3(1), B5(4), S8(11), 2OMeF(12), BztA(13); staples PL3(1)-B5(4) and B5(4)-S8(11)
B17: I-557 (peptide)
peptide: Ac-[αAllylPro]DI[B5(17)]DEAAFN[S8]F[Bta]Q-NH2
modifications: staple 1-4, 4-11
notes: as for B6
B18: I-554 (peptide)
peptide: XDIXDDAAFNXFXH
modifications: not fully specified; Ac-PL3-Asp-Ile-B5-Asp-Asp-Ala-Ala-Phe-Asn-S8-2OMeF-BztA-His-NH2; N-terminal acetyl, C-terminal amide; non-natural: PL3(1), B5(4), S8(11), 2OMeF(12), BztA(13); staples PL3(1)-B5(4) and B5(4)-S8(11)

In the first experiment the target is T1, full-length beta-Catenin (Uniprot ID P35222) (Homo sapiens (Human), UniProt P35222 1-781).
T1 construct: also called bCat; B-Catenin
T1 sequence: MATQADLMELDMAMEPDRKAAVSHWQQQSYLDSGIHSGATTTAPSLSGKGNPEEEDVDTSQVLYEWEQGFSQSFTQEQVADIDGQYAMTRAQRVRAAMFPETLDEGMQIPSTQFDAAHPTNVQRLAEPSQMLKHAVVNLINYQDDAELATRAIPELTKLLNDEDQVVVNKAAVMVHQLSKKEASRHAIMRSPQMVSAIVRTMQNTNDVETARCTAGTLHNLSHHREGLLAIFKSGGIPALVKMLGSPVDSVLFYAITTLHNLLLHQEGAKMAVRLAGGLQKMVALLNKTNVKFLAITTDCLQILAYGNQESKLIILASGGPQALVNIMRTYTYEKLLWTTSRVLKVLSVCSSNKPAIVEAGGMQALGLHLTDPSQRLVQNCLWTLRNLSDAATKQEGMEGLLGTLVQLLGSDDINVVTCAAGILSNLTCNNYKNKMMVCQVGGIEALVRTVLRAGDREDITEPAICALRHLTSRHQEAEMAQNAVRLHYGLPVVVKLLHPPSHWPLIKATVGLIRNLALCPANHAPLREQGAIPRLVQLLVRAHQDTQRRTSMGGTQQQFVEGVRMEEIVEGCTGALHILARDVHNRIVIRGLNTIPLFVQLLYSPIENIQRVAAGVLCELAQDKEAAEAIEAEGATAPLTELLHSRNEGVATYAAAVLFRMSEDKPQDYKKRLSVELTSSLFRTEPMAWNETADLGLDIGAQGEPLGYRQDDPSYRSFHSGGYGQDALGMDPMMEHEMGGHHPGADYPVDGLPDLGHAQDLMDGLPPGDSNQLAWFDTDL
Briefly: fluorescence polarization competition vs 5FAM-TCF4(10-53) on full-length beta-catenin. Here is the method: (§1) The plate was incubated protected from light for 60 minutes at 20° C. prior to read. Reads were performed on a CLARIOstar plate reader (BMG Labtech) in duplicate, and data were fitted to a 1:1 binding model with hill slope using an in-house script. All provided concentrations are final concentrations.
(In fluorescence polarisation assays a small probe gives low polarisation when free and higher when bound to something large.)
In turn, B1 displayed an IC50 of 1910 nM.

Take B2: the IC50 was found to be 5000 nM. Compared with the last molecule, the IC50 is about 2.6-fold higher.

Molecule B3 returned an IC50 of 5000 nM.

Consider B4, for which the IC50 worked out at 4720 nM.

In a further experiment the target is T2, full-length beta-Catenin (Uniprot ID P35222) (Homo sapiens (Human), UniProt P35222 1-781).
T2 construct: also called bCat; B-Catenin
T2 sequence: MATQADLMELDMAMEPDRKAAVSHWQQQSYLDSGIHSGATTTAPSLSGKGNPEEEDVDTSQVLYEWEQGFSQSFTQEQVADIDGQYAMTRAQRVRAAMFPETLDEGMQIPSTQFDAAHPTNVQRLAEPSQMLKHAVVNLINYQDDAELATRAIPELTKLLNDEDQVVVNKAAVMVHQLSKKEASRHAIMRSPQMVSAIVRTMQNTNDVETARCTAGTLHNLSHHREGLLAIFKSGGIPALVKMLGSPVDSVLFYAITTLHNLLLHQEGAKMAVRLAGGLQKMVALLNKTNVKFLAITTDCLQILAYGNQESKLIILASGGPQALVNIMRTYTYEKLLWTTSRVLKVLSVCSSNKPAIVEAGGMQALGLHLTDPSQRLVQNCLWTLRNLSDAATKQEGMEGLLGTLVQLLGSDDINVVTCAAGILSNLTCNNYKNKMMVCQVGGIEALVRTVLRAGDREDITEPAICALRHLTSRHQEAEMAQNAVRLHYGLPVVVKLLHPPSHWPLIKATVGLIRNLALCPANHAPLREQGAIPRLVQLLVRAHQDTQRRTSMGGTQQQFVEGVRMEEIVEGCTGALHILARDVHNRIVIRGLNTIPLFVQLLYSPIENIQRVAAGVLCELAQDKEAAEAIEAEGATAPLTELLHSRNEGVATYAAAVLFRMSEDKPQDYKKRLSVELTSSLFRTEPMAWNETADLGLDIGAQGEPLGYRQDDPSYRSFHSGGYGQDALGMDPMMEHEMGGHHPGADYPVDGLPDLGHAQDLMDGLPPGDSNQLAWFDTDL
In words: fluorescence polarization competition; displacement of 5FAM-TCF4(10-53) from full-length beta-catenin. Here is the method: as §1
B5 came in with an EC50 of 109 nM. In other words, the sub-micromolar range.

Consider B6, for which a half-maximal effect (EC50) was put at 5000 nM.

The molecule B7 displayed a half-maximal effective concentration (EC50) of 5000 nM. This counts as single-digit micromolar.

Molecule B8 registered an EC50 of 180 nM. This EC50 is about 28-fold lower than that of the molecule before.

B9 registered an EC50 of 19 nM.

The molecule B10 registered an EC50 of 5000 nM.

For the molecule B11, the half-maximal effective concentration (EC50) amounted to 5000 nM.

Consider B12, for which the EC50 came out at 51 nM.

For the molecule B13, the midpoint of the response, the EC50, lay at 61 nM.

B14 had an EC50 of 34 nM.

In the case of B15, the EC50 amounted to 36 nM.

In turn, B16 gave an EC50 of 71 nM.

The molecule B17 gave an EC50 of 35 nM.

B18 returned an EC50 of 27.5 nM. The EC50 values of the last two molecules are within 1.5-fold of each other.
